Test results from article PMC2899887 (Biochemistry, 2010).
Where no end group is shown, it is not given here.

T1: Nck2_70-168 (human, UniProt O43639 70-168)
T1 sequence (looked up): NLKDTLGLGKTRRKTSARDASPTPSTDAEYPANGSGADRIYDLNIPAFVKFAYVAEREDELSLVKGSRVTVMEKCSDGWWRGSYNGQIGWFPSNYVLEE

T2: isolated 2nd SH3 domain (SH3.2) of human Nck2, residues 112-168 (human, UniProt O43639 112-168)
T2 sequence (looked up): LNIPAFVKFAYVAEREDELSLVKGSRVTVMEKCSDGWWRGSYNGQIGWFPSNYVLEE


Columns and labels:
[1] = target: EGFR 647-654 (Homo sapiens) (UniProt P00533); assay: NMR; conditions: cited from earlier work
Nck2_70-168 = target: T1, Nck2_70-168; assay: NMR titration
[2] = target: T2, isolated 2nd SH3 domain (SH3.2) of …; assay: NMR titration

Row | Molecule | fold increase of Kd against the isolated SH3.2 domain (Nck2_70-168) | further results
1 | Nck1 SH3.2 (from UniProt P16333) |  | Kd [1]: 80 µM
2 | EVPVPPPVPPRR-NH2 [SOS1 peptide (1146-EVPVPPPVPPRR-1157)] | 4.7 fold | 
3 | QDKPPAPPMRN-NH2 [Pak1 peptide (9-QDKPPAPPMRN-19)] | 4.7 fold | 
4 | LKDTLGLGKTRRKTSARDAS-NH2 [Nck2_71-90 peptide] |  | Kd [2]: ~1700 µM
